Read-outs that look alike come from different tables or passages of the source.
Tests used:
[1] = test system: Pseudomonas aeruginosa biofilm; assay: MBEC in CAA supplemented with […] human serum (Table 14); type: cell-based
Procedure: Biofilms are then washed and treated with e.g., a 2-fold dilution series of the lysin in TSBg at e.g., 37° C. for 24 hours. After treatment, wells are washed, air-dried at e.g., 37° C. and stained with e.g., 0.05% crystal violet for 10 minutes.
Materials and methods: MICs were determined by broth microdilution in media supplemented with human serum and pulmonary surfactant ([…]®; Myoderm Clinical Supplies). Minimal biofilm eradicating concentrations (MBECs) were determined using standard methods. […] Fluorescence microscopy was performed after LIVE/DEAD staining (ThermoFisher) and TEM was performed.

[2] = test system: Pseudomonas aeruginosa strain CFS-1292 (meropenem resistant); settings: strain CFS-1292; no added cations
Procedure: The activity of selected GN lysins and constructs in the presence of divalent cations was evaluated, and the impact of divalent cations at physiological concentrations was examined in the MIC assay format.

[3] = test system: P. aeruginosa isolate CFS 1558 (PA20); type: in vivo; settings: for Log10 CFU/g of vegetation: rabbit lung
Procedure: A rabbit pulmonary model was used to assess the efficacy of the GN370 lysin alone and in combination with an antibiotic (meropenem). Initially, rabbits were infected intratracheally with P. aeruginosa isolate CFS 1558 (PA20) (3×10^9 CFU). Treatment commenced 6 hours post-infection.

[4] = test system: P. aeruginosa strain WC-453; assay: Time-kill assay in HEPES or CAA with 25% human serum (Tables 7, 8); type: cell-based, Pseudomonas aeruginosa
Procedure: Exponential phase bacteria were then pelleted and resuspended in 1/5 culture volume of 25 mM HEPES, pH 7.4 before a final adjustment to an optical density corresponding to a McFarland value of 0.5. […] All treatments were incubated at 37° C. with aeration. At time points before the addition of lysin (or buffer control) and at 1 hour and 3 hours intervals thereafter, culture samples were removed for quantitative plating on CAA agar plates.

[5] = test system: P. aeruginosa strain PA453; assay: Time-kill assay of GN370 in animal blood (Table 34); type: cell-based, Pseudomonas aeruginosa; settings: limit of detection 1.6
Text: The results are shown below in Table 34, wherein survival is reported as Log10 CFU/mL and wherein the limit of detection was 1.6 Log10 CFU/mL.

B1: GN370: lysin-AMP construct: MIDR, FIRL and NPTH moieties N-terminal to GN202 lysin (SEQ ID NO: 44) (protein)
chain: MIDRFIRLNPTHGPRRPRRPGRRAPVRTSQRGIDLIKSFEGLRLSAYQDSVGVWTIGYGTTRGVTRYMTITVEQAERMLSNDIQRFEPELDRLAKVPLNQNQWDALMSFVYNLGAANLASSTLLDLLNKGDYQGAADQFPHWVNAGGKRLDGLVKRRAAERALFLEPLS
- MBEC in CAA supplemented with […] human serum [1]: 1 µg/mL
- MIC in 25% CAA [2]: 4 µg/mL
- Bacterial burden, Kidneys ([3]; GN370 3 mg/kg): 5.06 ± 1.05 log10 CFU/g
- Bacterial burden, Lung 1 ([3]; GN370 3 mg/kg): 6.28 ± 1.12 log10 CFU/g
- Bacterial burden, Lung 2 ([3]; GN370 3 mg/kg): 6.43 ± 1.01 log10 CFU/g
- Bacterial burden, Spleen ([3]; GN370 3 mg/kg): 5.23 ± 1.25 log10 CFU/g
- Bacterial burden, Kidneys ([3]; GN370 10 mg/kg): 3.46 ± 0.78 log10 CFU/g
- Bacterial burden, Lung 1 ([3]; GN370 10 mg/kg): 6.63 ± 1.00 log10 CFU/g
- Bacterial burden, Lung 2 ([3]; GN370 10 mg/kg): 5.53 ± 1.75 log10 CFU/g
- Bacterial burden, Spleen ([3]; GN370 10 mg/kg): 3.76 ± 0.44 log10 CFU/g
- reduction in CFUs in the lungs ([3]; GN370 alone, increasing concentrations, compared to pretreatment control): 4 log10
- additional decrease of bacterial density in lung, kidney and spleen ([3]; GN-370 (10 mg/kg) in addition to meropenem, compared to meropenem or GN-370 alone): 2 log10 CFU/g
- decrease of mean bacterial density in lungs ([3]; agent alone, compared to the starting CFU and the vehicle control group): about 2 log10 CFU/g
- Log10 CFU/g of vegetation ([3]; GN370 3 mg/kg): 6.52 ± 1.01 Log10 CFU/g
- Log10 CFU/g of vegetation ([3]; GN370 10 mg/kg): 6.25 ± 1.35 Log10 CFU/g
- Log10 CFU/g of vegetation ([3]; GN370 30 mg/kg): 7.88 ± 0.50 Log10 CFU/g
- tolerability in infected rabbits ([3]; tested doses): well tolerated at the tested doses
- survival until the end of the study ([3]; treated infected rabbits): all treated infected animals survived until the end of the study
- bactericidal activity (CFU decrease of 3-Log10, 3 hours after the addition of lysin) ([4]; 10 μg/mL, enumerated lysins in CAA/HuS, general statement for HEPES and CAA/HuS): bactericidal activity
- CAA/HuS (Log10 CFU/mL), 1 hr ([4]; CAA + 25% human serum, lysin 10 μg/ml, 1 hr, WC-453): 4.0 Log10 CFU/mL
- CAA/HuS (Log10 CFU/mL), 3 hr ([4]; CAA + 25% human serum, lysin 10 μg/ml, 3 hr, WC-453): <3.7 Log10 CFU/mL
- Log10 CFU/mL of P. aeruginosa ([5]; Dog blood, 2 hours, GN370 4 μg/mL): 3.5 Log10 CFU/mL
- Log10 CFU/mL of P. aeruginosa ([5]; Dog blood, 2 hours, GN370 20 μg/mL): 1.6 Log10 CFU/mL
- Log10 CFU/mL of P. aeruginosa ([5]; Dog blood, 2 hours, GN370 50 μg/mL): 1.6 Log10 CFU/mL
- Log10 CFU/mL of P. aeruginosa ([5]; Dog blood, 2 hours, GN370 100 μg/mL): 1.6 Log10 CFU/mL
- Log10 CFU/mL of P. aeruginosa ([5]; Dog blood, 2 hours, GN370 200 μg/mL): 1.6 Log10 CFU/mL
- Log10 CFU/mL of P. aeruginosa ([5]; Dog blood, 4 hours, GN370 4 μg/mL): 4.7 Log10 CFU/mL
- Log10 CFU/mL of P. aeruginosa ([5]; Dog blood, 4 hours, GN370 20 μg/mL): 1.6 Log10 CFU/mL
- Log10 CFU/mL of P. aeruginosa ([5]; Dog blood, 4 hours, GN370 50 μg/mL): 1.6 Log10 CFU/mL
- Log10 CFU/mL of P. aeruginosa ([5]; Dog blood, 4 hours, GN370 100 μg/mL): 1.6 Log10 CFU/mL
- Log10 CFU/mL of P. aeruginosa ([5]; Dog blood, 4 hours, GN370 200 μg/mL): 1.6 Log10 CFU/mL
- Log10 CFU/mL of P. aeruginosa ([5]; Dog blood, 24 hours, GN370 4 μg/mL): 7.2 Log10 CFU/mL
- Log10 CFU/mL of P. aeruginosa ([5]; Dog blood, 24 hours, GN370 20 μg/mL): 1.6 Log10 CFU/mL
- Log10 CFU/mL of P. aeruginosa ([5]; Dog blood, 24 hours, GN370 50 μg/mL): 1.6 Log10 CFU/mL
- Log10 CFU/mL of P. aeruginosa ([5]; Dog blood, 24 hours, GN370 100 μg/mL): 1.6 Log10 CFU/mL
- Log10 CFU/mL of P. aeruginosa ([5]; Dog blood, 24 hours, GN370 200 μg/mL): 1.6 Log10 CFU/mL
- Log10 CFU/mL of P. aeruginosa ([5]; Human blood, 2 hours, GN370 4 μg/mL): 1.6 Log10 CFU/mL
- Log10 CFU/mL of P. aeruginosa ([5]; Human blood, 2 hours, GN370 20 μg/mL): 1.6 Log10 CFU/mL
- Log10 CFU/mL of P. aeruginosa ([5]; Human blood, 2 hours, GN370 50 μg/mL): 1.6 Log10 CFU/mL
- Log10 CFU/mL of P. aeruginosa ([5]; Human blood, 2 hours, GN370 100 μg/mL): 1.6 Log10 CFU/mL
- Log10 CFU/mL of P. aeruginosa ([5]; Human blood, 2 hours, GN370 200 μg/mL): 1.6 Log10 CFU/mL
- Log10 CFU/mL of P. aeruginosa ([5]; Human blood, 4 hours, GN370 4 μg/mL): 1.6 Log10 CFU/mL
- Log10 CFU/mL of P. aeruginosa ([5]; Human blood, 4 hours, GN370 20 μg/mL): 1.6 Log10 CFU/mL
- Log10 CFU/mL of P. aeruginosa ([5]; Human blood, 4 hours, GN370 50 μg/mL): 1.6 Log10 CFU/mL
- Log10 CFU/mL of P. aeruginosa ([5]; Human blood, 4 hours, GN370 100 μg/mL): 1.6 Log10 CFU/mL
- Log10 CFU/mL of P. aeruginosa ([5]; Human blood, 4 hours, GN370 200 μg/mL): 1.6 Log10 CFU/mL
- Log10 CFU/mL of P. aeruginosa ([5]; Human blood, 24 hours, GN370 4 μg/mL): 4.1 Log10 CFU/mL
- Log10 CFU/mL of P. aeruginosa ([5]; Human blood, 24 hours, GN370 20 μg/mL): 1.6 Log10 CFU/mL
- Log10 CFU/mL of P. aeruginosa ([5]; Human blood, 24 hours, GN370 50 μg/mL): 1.6 Log10 CFU/mL

— US20210324359A1, “USE OF GRAM-NEGATIVE LYSIN-ANTIMICROBIAL PEPTIDE (AMP) POLYPEPTIDE CONSTRUCTS IN TREATING ENDOCARDITIS” (priority 2020, published 2021)
